# How the values were obtained:
# [1] = Inhibition of the oxidation of ABTS by NPE-hemoglobin conjugates (microtitration plate, H2O2); assay type: biochemical; conditions: oxidation of ABTS 1 mM, H2O2 1 mM, sodium acetate buffer pH 5, before dialysis
# Description: Bovine hemoglobin in aqueous solution (32 μM) is treated with different concentrations of 1-(2-nitrophenyl)ethyldiazoethane (NPE-diazo) in solution in DMSO at 20° C. for 1 h in darkness. The final concentration of DMSO should not exceed 5%. The NPE-diazo concentrations vary from 50 to 100 equivalents with respect to the hemoglobin. The coupling reaction is halted by addition of a 100 mM acetate buffer solution at pH 4.4 (1 equivalent with respect to NPE-diazo). The contact times vary from 10 to 30 min. The reaction mixture is subsequently dialyzed against water, between 4 and 20° C., between 1 and 16 hours, against 1000 volumes of water. The conjugate is stored at 20° C.
# The percentage of inhibition of the oxidation of ABTS [diammonium salt of 2,2′-azinobis(3-ethylbenzothiazolinone-6-sulfonic acid), 1 mM] is determined before dialysis on 96-well microtitration plates (Costar, Corning Incorporated) in sodium acetate buffer, […], pH 5, in the presence of 1 mM of hydrogen peroxide. The number of molecules attached per hemoglobin molecule is determined by mass spectrometry (electrospray).
# [2] = Restoration of the enzymatic activity (ABTS oxidation) after photolysis at 366 nm; assay type: biochemical; conditions: after irradiating for 30 min at 366 nm; ABTS 1 mM, H2O2 1 mM
# Description: The oxidation catalyst is reactivated by irradiation of the solutions of the various conjugates (1 mg/ml) in sodium acetate buffer (25 mM, pH 4.4). Photolysis takes place at 366 nm (100 W UV lamp, 7 mW/cm^2 at a distance of 30 cm); the irradiation times vary from 5 to 30 min. This stage is advantageously carried out in the presence of 5 mM of 2-ethanolamine in order to trap possible cross reactions between photolysis products and hemoglobin.
# The restoration of the enzymatic activity is determined in microtitration plates as described above in the presence of ABTS (1 mM) and H2O2 (1 mM).
substance,measurement,setting,value
Hb-50: Bovine hemoglobin treated with 50 equivalents of 1-(2-nitrophenyl)ethyldiazoethane (NPE-diazo); NPE-hemoglobin conjugate,Residual activity (%),[1],12.6%
same,activity recovered after irradiation,[2],57%
Hb-75: Bovine hemoglobin treated with 75 equivalents of 1-(2-nitrophenyl)ethyldiazoethane (NPE-diazo); NPE-hemoglobin conjugate,Residual activity (%),[1],5.4%
same,activity recovered after irradiation,[2],28%
"Native hemoglobin: Untreated bovine hemoglobin, oxidation catalyst used as 100% activity reference [reference compound]",Residual activity (%),[1],100%
Hb-100: Bovine hemoglobin treated with 100 equivalents of 1-(2-nitrophenyl)ethyldiazoethane (NPE-diazo); NPE-hemoglobin conjugate,Residual activity (%),[1],2.5%
same,activity recovered after irradiation,[2],16%

# — US7951210B2, “Support-colouring means” (Doublet Luc, priority 2004, dated 2011)
